Source: patent US20240409660A1

Columns and labels:
[1] = molecular target: human CD28, full-length, expressed on Expi293 cells (human) (UniProt P10747); test: flow cytometry, transfected cells
human PD-L1 (human) = human PD-L1 (human) (UniProt Q9NZQ7); test: flow cytometry, transfected cells
[2] = molecular target: human PD-L1, full-length, expressed on Expi293 cells (human) (UniProt Q9NZQ7); test: flow cytometry, transfected cells
human CD28 (human) = human CD28 (human) (UniProt P10747); test: flow cytometry, transfected cells
[3] = molecular target: human CD28, full length, expressed on transfected Expi293 cells (human) (UniProt P10747); test: flow cytometry, Expi293 cells transfected with human CD28

stacked IgV-Fc fusion: domain 1 NKp30 WT, domain 2 ICOSL WT
MFI [1]: 6340 MFI

stacked IgV-Fc: Domain 1 CD80 WT / Domain 2 ICOSL WT (Fc fusion)
MFI (human PD-L1 (human)): 1230 MFI

stacked IgV-Fc fusion: domain 1 CD80 WT, domain 2 ICOSL WT
MFI [1]: 1230 MFI | MFI [2]: 2660 MFI

CD80 K36G/K37Q/M38I/L40M/F59L/E81V/L85R/K89N/A91T/F92P/K93V/R94L/E99G/T130A/N149S ECD-Fc (Fc fusion)
MFI ratio to WT CD80 (parental ratio) [1]: 0.1

variant ICOSL ECD-Fc T43A, N52H, N57Y, L74Q, D89G, V110D, F172S (Fc fusion)
parental ratio (human CD28 (human)): 0.49

stacked IgV-Fc fusion: domain 1 ICOSL WT, domain 2 NKp30 WT
MFI [1]: 7920 MFI

stacked IgV-Fc: Domain 1 ICOSL WT / Domain 2 CD80 WT (Fc fusion)
MFI (human PD-L1 (human)): 3000 MFI

B1: ICOSL F120S/Y152H/N201S variant ECD-Fc fusion (Fc fusion)
chain: DTQEKEVRAMVGSDVELSCACPEGSRFDLNDVYVYWQTSESKTVVTYHIPQNSSLENVDSRYRNRALMSPAGMLRGDFSLRLFNVTPQDEQKFHCLVLSQSLGFQEVLSVEVTLHVAANSSVPVVSAPHSPSQDELTFTCTSINGYPRPNVHWINKTDNSLLDQALQNDTVFLNMRGLYDVVSVLRIARTPSVNIGCCIESVLLQQNLTVGSQTGNDIGERDKITENPVSTGEKNAATAAAEPKSSDKTHTCPPCPAPELLGGPSVFLFPPKPKDTLMISRTPEVTCVVVDVSHEDPEVKFNWYVDGVEVHNAKTKPCEEQYGSTYRCVSVLTVLHQDWLNGKEYKCKVSNKALPAPIEKTISKAKGQPREPQVYTLPPSREEMTKNQVSLTCLVKGFYPSDIAVEWESNGQPENNYKTTPPVLDSDGSFFLYSKLTVDKSRWQQGNVFSCSVMHEALHNHYTQKSLSLSPGK
MFI ratio to parental (WT ICOSL) [3]: 0.89
